Test results as given in the supplement of paper PMC10126150.
± gives the standard deviation of the averaged measurements.

The sequences below were run on ATP (assay: switch fluorescence ratio, 500 uM ATP over buffer (Cy3 cluster intensity, sum of 5 cycles each) (fold (ratio)); higher = stronger signal-on switching upon ATP binding; sequences stand for … in TCGTCGGCAGCGTCAGATGTGTATAAGAGACAGTTTTTTTTTTTTTTTTTTTTTTTTT…TC). Conditions: aptamer strand: ATP DNA aptamer (quencher-CACCTGGGGGAGTATTGCGGAGGAAGG + anchor), 100 nM annealed; ATP concentration: 500 uM.
In short: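 Switching-strand clusters labelled with Cy3 on a modified Illumina MiSeq flow-cell were annealed to 100 nM quencher-labelled ATP aptamer, imaged in selection buffer, and re-imaged after 15 min with 500 uM ATP at 22 °C. This was done over five cycles with NaOH stripping and re-annealing in between. The fluorescence ratio is summed target-cycle over summed buffer-cycle Cy3 intensity per cluster, averaged per switch-domain sequence, excluding clusters outside 100-1000 RFU.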
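Further: ATP exposure 15 min at 22 °C before imaging.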

In order of rising switch fluorescence ratio:
1. CAATGTGGCG  0.922 ± 0.038
2. CAATGGGTCT  0.9523 ± 0.0028
3. CACTTATTCT  0.973 ± 0.017
4. CAATCTTGTC  0.975 ± 0.057
5. CAATGCGGTA  0.976 ± 0.046
6. CACGGTTGGG  0.976 ± 0.034
7. CAATGGGTAT  0.978 ± 0.014
8. CAATAGAAGT  0.979 ± 0.037
9. CAATTAGGAG  0.979 ± 0.024
10. CAATTTGATG  0.979 ± 0.05
11. CAATAGGCAG  0.9824 ± 0.0053
12. CAATTGGACA  0.982 ± 0.01
13. CACGTGCCAG  0.985 ± 0.043
14. CAAGTGAGGC  0.987 ± 0.075
15. CAAGGTTTAC  0.9881 ± 0.00047
16. CAAGTAAGTT  0.9884 ± 0.0063
17. CAAGTCTGGG  0.9879 ± 0.0059
18. CACGGATTCA  0.988 ± 0.043
19. CAATGTGGGG  0.989 ± 0.056
20. CACGGGGGGA  0.99 ± 0.033
21. CACAATTTTT  0.991 ± 0.025
22. CACCCTTTGT  0.9912 ± 0.0036
23. CAAGGTCCGA  0.99445 ± 0.00086
24. CAATATTTG  0.994 ± 0.015
25. CACTGGAGGG  0.9937 ± 0.0042
26. CAATTGGGGA  0.995 ± 0.029
27. CACCGGGGTG  0.995 ± 0.13
28. CAATTGGAAC  0.99578 ± 8.3e-05
29. CACACTGGCA  0.996 ± 0.05
30. CAATGAGGG  0.997 ± 0.022
31. CACATGGTCG  0.997 ± 0.02
32. CACTTGGTTG  0.997 ± 0.051
33. CAGAAGGGCC  0.997 ± 0.089
34. CAATGGCCGA  0.9978 ± 0.0068
35. CAAGTATTGT  0.999 ± 0.025
36. CAAGGTCGGC  1 ± 0.04
37. CAAGTCCGTT  1 ± 0.037
38. CAAGTTCGTG  1.002 ± 0.0089
39. CAAGTTTATT  1.001 ± 0.01
40. CAATATCCGA  1 ± 0.026
41. CAATGGTTTG  1 ± 0.018
42. CAATTGTACG  1 ± 0.011
43. CAATTTAGTG  1 ± 0.047
44. CACAGCGTCG  1 ± 0.017
45. CACGCGTGGA  1.003 ± 0.0055
46. CACGGGGGCG  1 ± 0.049
47. CAGAAGGTTT  1 ± 0.022
48. CAAGTCCATT  1.01 ± 0.034
49. CAATATATCT  1.01 ± 0.019
50. CAATTAGTGA  1.01 ± 0.028
51. CAATTGCGCT  1.01 ± 0.016
52. CACAAAAATT  1.01 ± 0.024
53. CACGGCAGGG  1.01 ± 0.012
54. CACTTGTTTT  1.01 ± 0.011
55. CAAGTGGCAT  1.017 ± 0.0079
56. CAATCATGTT  1.02 ± 0.027
57. CAATTTAGCG  1.02 ± 0.032
58. CACAATAGAT  1.02 ± 0.022
59. CACACGGTTC  1.02 ± 0.028
60. CACCGTGTCT  1.02 ± 0.016
61. CACCTGTTTT  1.02 ± 0.033
62. CACGGGTTGC  1.02 ± 0.031
63. CAGAAAGGAC  1.02 ± 0.031
64. CAATGGGACG  1.03 ± 0.098
65. CACAAGGCGG  1.03 ± 0.041
66. CACAAGGGCC  1.03 ± 0.018
67. CACAGGGCTG  1.026 ± 0.0059
68. CACATAGACG  1.03 ± 0.046
69. CAATAGTCAG  1.04 ± 0.015
70. CAATGAACAC  1.04 ± 0.031
71. CAATTAACGG  1.04 ± 0.027
72. CAATTGTTCC  1.04 ± 0.021
73. CACCGAGTTA  1.04 ± 0.032
74. CACTGGAAAA  1.04 ± 0.036
75. CAATCGACTC  1.047 ± 0.0037
76. CACGTCTAGG  1.05 ± 0.048
77. CACTTAAGGC  1.05 ± 0.072
78. CACCTAGGCT  1.055 ± 0.0048
79. CACTTGGGTG  1.064 ± 0.0066
80. CAATCTGCGC  1.07 ± 0.043
81. CACCGAGATT  1.07 ± 0.076
82. CACGAAGGAA  1.07 ± 0.019
83. CACTGCGTCT  1.07 ± 0.11
84. CACGGGAACA  1.082 ± 0.0053
85. CACGTATGTT  1.09 ± 0.021
86. CACCACGGCA  1.1 ± 0.045
87. CACTCGCCCG  1.11 ± 0.042
88. CACATGACAC  1.13 ± 0.015
89. CACGTAGTAA  1.13 ± 0.03
90. CACATGGTGT  1.15 ± 0.02
91. CACGGCGACA  1.15 ± 0.027
92. CACCGAAATG  1.17 ± 0.1
93. CACAGGGGGG  1.19 ± 0.34
94. CACTCTGCTG  1.19 ± 0.012
95. CACGAAGACC  1.197 ± 0.0068
96. CAATTCGCTA  1.21 ± 0.089
97. CACAAGCACT  1.28 ± 0.069
98. CACCGGGATG  1.31 ± 0.099
99. CACGGCACGA  1.36 ± 0.073
100. CACGGGATGC  1.58 ± 0.12
